In US6500669:

Target: hUBF (upstream binding factor, RNA polymerase I transcription factor) (Homo sapiens) (UniProt P17480)
Assay: footprint
Conditions: apparent Kd, half-maximal binding; cooperative, Hill 2.7; 14 mM MgCl2, 50 mM KCl, pH 7.9, 30 C

Sequence of hUBF (upstream binding factor, RNA polymerase I transcription factor) (Homo sapiens) (P17480 whole entry): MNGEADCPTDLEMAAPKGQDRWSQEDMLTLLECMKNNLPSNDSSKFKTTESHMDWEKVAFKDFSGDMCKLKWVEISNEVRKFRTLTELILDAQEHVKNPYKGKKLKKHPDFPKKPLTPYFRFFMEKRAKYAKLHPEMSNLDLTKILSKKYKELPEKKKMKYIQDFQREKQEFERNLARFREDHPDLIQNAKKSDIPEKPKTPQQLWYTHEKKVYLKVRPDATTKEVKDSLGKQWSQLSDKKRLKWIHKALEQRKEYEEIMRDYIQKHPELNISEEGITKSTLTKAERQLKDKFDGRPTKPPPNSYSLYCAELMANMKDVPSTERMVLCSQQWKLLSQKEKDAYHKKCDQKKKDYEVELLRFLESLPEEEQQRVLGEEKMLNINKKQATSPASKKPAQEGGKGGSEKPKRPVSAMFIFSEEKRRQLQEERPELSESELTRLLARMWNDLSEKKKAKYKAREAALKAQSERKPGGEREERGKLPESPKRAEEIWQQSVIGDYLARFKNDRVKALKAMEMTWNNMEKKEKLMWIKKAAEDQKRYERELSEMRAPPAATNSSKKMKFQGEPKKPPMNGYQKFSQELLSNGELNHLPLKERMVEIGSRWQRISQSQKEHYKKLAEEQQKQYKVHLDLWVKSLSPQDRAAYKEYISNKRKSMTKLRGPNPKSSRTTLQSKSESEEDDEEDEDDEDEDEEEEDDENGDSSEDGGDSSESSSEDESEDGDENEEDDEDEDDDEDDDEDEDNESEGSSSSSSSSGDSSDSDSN

## human rRNA gene promoter fragment -208 to +78 (EcoRI-BstEII of pSBr208)
  Kd: 0.018 nM
